Biological target: T1, 3xFLAG-MITF (UniProt Q08874 1-526)
T1 sequence (looked up): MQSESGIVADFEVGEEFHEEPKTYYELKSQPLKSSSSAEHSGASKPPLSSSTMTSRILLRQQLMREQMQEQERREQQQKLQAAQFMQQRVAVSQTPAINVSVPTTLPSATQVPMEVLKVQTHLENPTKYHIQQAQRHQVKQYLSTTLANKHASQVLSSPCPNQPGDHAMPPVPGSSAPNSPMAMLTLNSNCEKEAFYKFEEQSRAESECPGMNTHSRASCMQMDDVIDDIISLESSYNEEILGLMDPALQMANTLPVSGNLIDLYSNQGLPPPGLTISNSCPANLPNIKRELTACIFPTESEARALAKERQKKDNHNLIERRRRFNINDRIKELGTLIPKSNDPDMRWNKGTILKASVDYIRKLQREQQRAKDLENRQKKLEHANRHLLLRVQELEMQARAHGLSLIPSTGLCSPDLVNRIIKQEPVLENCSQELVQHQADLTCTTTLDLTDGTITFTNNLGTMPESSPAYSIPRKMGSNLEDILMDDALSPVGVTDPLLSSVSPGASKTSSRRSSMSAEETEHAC
Assay: cell-based or functional assay

luciferase reporter under the hTyr promoter in HeLa cells, fold change with MITF + PAX6 (MITF alone 12.6 fold): 71.3 fold change
luciferase reporter under the mTyrp1 promoter in HeLa cells, fold change with MITF + PAX6 (MITF alone 5.6 fold; PAX6 alone no activation): 51.9 fold change
luciferase reporter with four consecutive M-box elements in HeLa cells, fold activity with PAX6 and MITF together (MITF alone 6.6 fold; PAX6 alone none): 11.9 fold
B1: 3xFLAG-PAX6 (natural protein)
chain: not shown

— PMC4038462, “PAX6 Regulates Melanogenesis in the Retinal Pigmented Epithelium through Feed-Forward Regulatory Interactions with MITF” (PLoS Genetics, 2014)
